Source: the RNAGym collection of RNA variant scans (doi:10.7554/elife.90254)

B1: LINE1-full (parent)
chain: UACGUAGGUGGUUUUCCCCUGAUAGUGCUAAGGGGGCCUGGAAGUUUGGACUGGGCAGAGCUCAACACAGCGUGGCAAAGUGGCUGUGGCUAGACUGCCUCUCUGGAUUCCUCGUCACUCAGCAGGGCAUCUCUGAGAGAAAUGCC

Variants of: B1
Assay: self-cleavage, relative activity (ratio to wild type); higher = more cleavage; in vitro, sequencing; the parent is a self-cleaving ribozyme

| Variant | self-cleavage |
| --- | --- |
| UACGUAGGUGGUUUUCCCCUGAUAGUGCUAAGGGGGCCUGGAAGCUUGGACUGGGCAGAGCUCAACACAGCGUGGCAAAGUGGCUGUGGCUGGACUGCCUCUCUGGAUUCCUCGUCACUCAGCAGGGCAUCUCUGAGAGAAAUGCC [U45C A92G] | 0.08 |
| UACGUAGGUGGUUUUCCCCUGAUAGUGCUAAGGGGGCCUGGAAGAUUGGACUGGGCAGAGCUCAACACAGCGUGGCAAAGUGGCUGUGGCUAGACUGCCUCUCUGGAUUCCUCGUCACUCAGCAGGGCAUCUCAGAGAGAAAUGCC [U45A U134A] | 1.11 |
| UACGUAGGUGGUUUUCCCCUGAUAGUGCUAAGGGGGCCUGGAAGAUUGGACUGGGCAGAGCUCAACACAGCGUGGCAAAGUGGCUGUGGCUAGACUGCCUCUCUGGAUUCCUCGUCACUCAGCAGGGCAUCUCCGAGAGAAAUGCC [U45A U134C] | 1.49 |
| UACGUAGGUGGUUUUCCCCUGAUAGUGCUAAGGGGGCCUGGAAGCUUGGACUGGGCAGAGCUCAACACAGCGUGGCAAAGUGGCUGUGGCUAGACUGCCUCUCUGGAUUCCUCGUCACUCAGCAGGGCAUCUCUGAGAGCAAUGCC [U45C A140C] | 2.27 |
| UACGUAGGUGGUUUUCCCCUGAUAGUGCUAAGGGGGCCUGGAAGCUUGGACUGGGCAGAGCUCAACACAGCGUGGCAAAGUGGCUGUGGCUAGACUGCCUCUCUGGAUUCCUCGUCACUCAGCAGGGCAUCUCUGAGAGGAAUGCC [U45C A140G] | 1.41 |
| UACGUAGGUGGUUUUCCCCUGAUAGUGCUAAGGGGGCCUGGAAGCUUGGACUGGGCAGAGCUCAACACAGCGUGGCAAAGUGGCUGUGGCUAGACUGCCUCUCUGGAUUCCUCGUCACUCAGCAGGGCAUCUCUGAGAGAAAUGCC [U45C] | 1.36 |
| UACGUAGGUGGUUUUCCCCUGAUAGUGCUAAGGGGGCCUGGAAGCUUGGACUGGGCAGAGCUUAACACAGCGUGGCAAAGUGGCUGUGGCUAGACUGCCUCUCUGGAUUCCUCGUCACUCAGCAGGGCAUCUCUGAGAGAAAUGCC [U45C C63U] | 0.18 |
| UACGUAGGUGGUUUUCCCCUGAUAGUGCUAAGGGGGCCUGGAAGCUUGGACUGGGCAGAGCUAAACACAGCGUGGCAAAGUGGCUGUGGCUAGACUGCCUCUCUGGAUUCCUCGUCACUCAGCAGGGCAUCUCUGAGAGAAAUGCC [U45C C63A] | 0.11 |
| UACGUAGGUGGUUUUCCCCUGAUAGUGCUAAGGGGGCCUGGAAGCUUGGACUGGGCAGAGCUCAACACAGCGUGGCAAAGUGGCUGUGGCUAGACUGCCUCUCUGGAUUCCUCGUCACUCAGCUGGGCAUCUCUGAGAGAAAUGCC [U45C A124U] | 1.58 |
| UACGUAGGUGGUUUUCCCCUGAUAGUGCUAAGGGGGCCUGGAAGCUUGGACUGGGCAGAGCUCAACACAGCGUGGCAAAGUGGCUGUGGCUAGACUGCCUCUCUGGAUUCCUCGUCACUCAGCGGGGCAUCUCUGAGAGAAAUGCC [U45C A124G] | 1.18 |
| UACGUAGGUGGUUUUCCCCUGAUAGUGCUAAGGGGGCCUGGAAGCUUGGACUGGGCAGAGCUCAACACAGCGUGGCAAAGUGGCUGUGGCUAGACUGCCUCUCUGGAUUCCUCGUCCCUCAGCAGGGCAUCUCUGAGAGAAAUGCC [U45C A117C] | 2.57 |
| UACGUAGGUGGUUUUCCCCUGAUAGUGCUAAGGGGGCCUGGAAGCUUGGACUGGGCAGAGCUCAACACAGCGUGGCAAAGUGGCUGUGGCUAGACUGCCUCUCUGGAUUCCUCGUCUCUCAGCAGGGCAUCUCUGAGAGAAAUGCC [U45C A117U] | 1.36 |
| UACGUAGGUGGUUUUCCCCUGAUAGUGCUAAGGGGGCCUGGAAGCUUGGACUGGGCAGAGCUCAACACAGCGUGGCAAAGUGGCUGUGGCUAGAUUGCCUCUCUGGAUUCCUCGUCACUCAGCAGGGCAUCUCUGAGAGAAAUGCC [U45C C95U] | 0.2 |
| UACGUAGGUGGUUUUCCCCUGAUAGUGCUAAGGGGGCCUGGAAGCUUGGACUGGGCAGAGCUCAACACAGCGUGGCGAAGUGGCUGUGGCUAGACUGCCUCUCUGGAUUCCUCGUCACUCAGCAGGGCAUCUCUGAGAGAAAUGCC [U45C A77G] | 2.62 |
| UACGUAGGUGGUUUUCCCCUGAUAGUGCUAAGGGGGCCUGGAAGCUUGGACUGGGCAGAGCUCAACACAGCGUGGCAGAGUGGCUGUGGCUAGACUGCCUCUCUGGAUUCCUCGUCACUCAGCAGGGCAUCUCUGAGAGAAAUGCC [U45C A78G] | 1.31 |
| UACGUAGGUGGUUUUCCCCUGAUAGUGCUAAGGGGGCCUGGAAGCUUGGACUGGGCAGAGCUCAACACAGCGUGGCAAAGUGGCUGUGGCUAGACUGCCUCUCUGGGUUCCUCGUCACUCAGCAGGGCAUCUCUGAGAGAAAUGCC [U45C A107G] | 1.73 |
| UACGUAGGUGGUUUUCCCCUGAUAGUGCUAAGGGGGCCUGGAAGCUUGGACUGGGCAGAGCUCACCACAGCGUGGCAAAGUGGCUGUGGCUAGACUGCCUCUCUGGAUUCCUCGUCACUCAGCAGGGCAUCUCUGAGAGAAAUGCC [U45C A65C] | 0.08 |
| UACGUAGGUGGUUUUCCCCUGAUAGUGCUAAGGGGGCCUGGAAGCUUGGACUGGGCGGAGCUCAACACAGCGUGGCAAAGUGGCUGUGGCUAGACUGCCUCUCUGGAUUCCUCGUCACUCAGCAGGGCAUCUCUGAGAGAAAUGCC [U45C A57G] | 0.7 |
| UACGUAGGUGGUUUUCCCCUGAUAGUGCUAAGGGGGCCUGGAAGCUUGGACUGGGCUGAGCUCAACACAGCGUGGCAAAGUGGCUGUGGCUAGACUGCCUCUCUGGAUUCCUCGUCACUCAGCAGGGCAUCUCUGAGAGAAAUGCC [U45C A57U] | 0.11 |
| UACGUAGGUGGUUUUCCCCUGAUAGUGCUAAGGGGGCCUGGAAGAUUGGACUGGGCAGAGCUCAACACAGCGUGGCAAAGUGGCUGUGGCUAGACUGCCUCUCUGGAUUCCUCGUCACUCAGCAGGGCAUCUCUGAGAGAAAAGCC [U45A U143A] | 1.21 |

| Variant | self-cleavage |
| --- | --- |
| UACGUAGGUGGUUUUCCCCUGAUAGUGCUAAGGGGGCCUGGAAGAUUGGACUGGGCAGAGCUCAACACAGCGUGGCAAAGUGGCUGUGGCUAGACUGCCUCUCUGGAUUCCUCGUCACUCAGCAGGGCAACUCUGAGAGAAAUGCC [U45A U130A] | 1.38 |
| UACGUAGGUGGUUUUCCCCUGAUAGUGCUAAGGGGGCCUGGAAGAUUGGACUGGGCAGAGCUCAACACAGCGUGGCAAAGUGGCUGUGGCUAGACUGCCUCUCUGGAUUCCCCGUCACUCAGCAGGGCAUCUCUGAGAGAAAUGCC [U45A U112C] | 1.36 |
| UACGUAGGUGGUUUUCCCCUGAUAGUGCUAAGGGGGCCUGGAAGCUUGGACUGGGCAGAGCUCAACACAGCGUGGCAAAGUGGCUGUGGCUAGACUGCCUCUCUGGAUUCCUCGUCACUCAGCAGGGCAUCUCUGAGUGAAAUGCC [U45C A138U] | 1.48 |
| UACGUAGGUGGUUUUCCCCUGAUAGUGCUAAGGGGGCCUGGAAGCUUGGACUGGGCAGAGCUCAACACAGCGUGGCAAAGUGGCUGUGGCUAGACUGCCUCUCUGGAUUCCUCGUCACUCAGCAGGGCAUCUCUGAGGGAAAUGCC [U45C A138G] | 1.47 |
| UACGUAGGUGGUUUUCCCCUGAUAGUGCUAAGGGGGCCUGGAAGCUUGGACUGGGCAGAGCUCAACACAGCGUGGCAAAGUGGCUGUGGCUAGACUGCCUCUCUGGAUUCCUCGUCACUCAGCAGGGCAUCUCUGAGCGAAAUGCC [U45C A138C] | 1.44 |
| UACGUAGGUGGUUUUCCCCUGAUAGUGCUAAGGGGGCCUGGAAGCUUGGACUGGGCAGAGCUCAACACAGCGUGGCAAAGUGGCUGUGGCUAGACUGCCUCUCUGGAUUCCUCGUCACUCAGCAGGGCAUCUCUGAGAGAGAUGCC [U45C A141G] | 1.37 |
| UACGUAGGUGGUUUUCCCCUGAUAGUGCUAAGGGGGCCUGGAAGCUUGGACUGGGCAGAGCUCAACACAGCGUGGCAAAGUGGCUGUGGCUAGACUGCCUCUCUGGAUUCCUCGUCACUCAGCAGGGCAUCUCUGAGAGAAGUGCC [U45C A142G] | 1.26 |
| UACGUAGGUGGUUUUCCCCUGAUAGUGCUAAGGGGGCCUGGAAGCUUGGACUGGGCAGAGUUCAACACAGCGUGGCAAAGUGGCUGUGGCUAGACUGCCUCUCUGGAUUCCUCGUCACUCAGCAGGGCAUCUCUGAGAGAAAUGCC [U45C C61U] | 0.09 |
| UACGUAGGUGGUUUUCCCCUGAUAGUGCUAAGGGGGCCUGGAAGCUUGGACUGGGCAGAGCUCAACACAGCGUGGCAACGUGGCUGUGGCUAGACUGCCUCUCUGGAUUCCUCGUCACUCAGCAGGGCAUCUCUGAGAGAAAUGCC [U45C A79C] | 1.23 |
| UACGUAGGUGGUUUUCCCCUGAUAGUGCUAAGGGGGCCUGGAAGCUUGGACUGGGCAGGGCUCAACACAGCGUGGCAAAGUGGCUGUGGCUAGACUGCCUCUCUGGAUUCCUCGUCACUCAGCAGGGCAUCUCUGAGAGAAAUGCC [U45C A59G] | 0.1 |
| UACGUAGGUGGUUUUCCCCUGAUAGUGCUAAGGGGGCCUGGAAGCUUGGACUGGGCAGAGCUCAAAACAGCGUGGCAAAGUGGCUGUGGCUAGACUGCCUCUCUGGAUUCCUCGUCACUCAGCAGGGCAUCUCUGAGAGAAAUGCC [U45C C66A] | 0.19 |
| UACGUAGGUGGUUUUCCCCUGAUAGUGCUAAGGGGGCCUGGAAGCUUGGACUGGGCAGAGCUCAACACAGCGUGGCAAAGUGGCUGUGGCUAGGCUGCCUCUCUGGAUUCCUCGUCACUCAGCAGGGCAUCUCUGAGAGAAAUGCC [U45C A94G] | 0.3 |
| UACGUAGGUGGUUUUCCCCUGAUAGUGCUAAGGGGGCCUGGAAGCUUGGACUGGGCAGAGCUCAACACAGCGUGGCAAAGUGGCUGUGGCUAGCCUGCCUCUCUGGAUUCCUCGUCACUCAGCAGGGCAUCUCUGAGAGAAAUGCC [U45C A94C] | 0.04 |
| UACGUAGGUGGUUUUCCCCUGAUAGUGCUAAGGGGGCCUGGAAGAUUGGACUGGGCAGAGCUCAACACAGCGUGGCAAAGUGGCUGUGGCUAGACUGCCUCUCUGGAUUCCUCGUCACUCAGCAGGGCAUCCCUGAGAGAAAUGCC [U45A U132C] | 1.93 |
| UACGUAGGUGGUUUUCCCCUGAUAGUGCUAAGGGGGCCUGGAAGCUUGGACUGGGCAGAGCUCAACACAGCGUGGAAAAGUGGCUGUGGCUAGACUGCCUCUCUGGAUUCCUCGUCACUCAGCAGGGCAUCUCUGAGAGAAAUGCC [U45C C76A] | 1.22 |
| UACGUAGGUGGUUUUCCCCUGAUAGUGCUAAGGGGGCCUGGAAGAUUGGACUGGGCAGAGCUCAACACAGCGUGGCAAAGUGGCUGUGGCUAGACUGCCUCUCUGGACUCCUCGUCACUCAGCAGGGCAUCUCUGAGAGAAAUGCC [U45A U108C] | 1.48 |
| UACGUAGGUGGUUUUCCCCUGAUAGUGCUAAGGGGGCCUGGAAGCUUGGACUGGGCAGAGCUCGACACAGCGUGGCAAAGUGGCUGUGGCUAGACUGCCUCUCUGGAUUCCUCGUCACUCAGCAGGGCAUCUCUGAGAGAAAUGCC [U45C A64G] | 0.22 |
| UACGUAGGUGGUUUUCCCCUGAUAGUGCUAAGGGGGCCUGGAAGAUUGGACUGGGCAGAGCUCAACACAGCGUGGCAAAGUGGCUGUGGCUAGACUGCCUCUCUGGAUACCUCGUCACUCAGCAGGGCAUCUCUGAGAGAAAUGCC [U45A U109A] | 0.94 |
| UACGUAGGUGGUUUUCCCCUGAUAGUGCUAAGGGGGCCUGGAAGCUUGGACUGGGCAGAGCUCAACUCAGCGUGGCAAAGUGGCUGUGGCUAGACUGCCUCUCUGGAUUCCUCGUCACUCAGCAGGGCAUCUCUGAGAGAAAUGCC [U45C A67U] | 0.12 |
